Biological target: Mouse CT-1 fusion protein (mouse cardiotrophin-1 with a 34 amino acid N-terminal extension that encodes a portion of the herpes simplex virus glycoprotein D and a factor Xa cleavage site) (mouse) (UniProt Q60753)
Test: 125I-mouse CT-1 binding to soluble LIF receptor with added soluble gp130, Ni-NTA agarose

Mouse CT-1 fusion protein (mouse cardiotrophin-1 with a 34 amino acid N-terminal extension that encodes a portion of the herpes simplex virus glycoprotein D and a factor Xa cleavage site) (mouse), sequence (Q60753 whole entry, the tested form may be a part): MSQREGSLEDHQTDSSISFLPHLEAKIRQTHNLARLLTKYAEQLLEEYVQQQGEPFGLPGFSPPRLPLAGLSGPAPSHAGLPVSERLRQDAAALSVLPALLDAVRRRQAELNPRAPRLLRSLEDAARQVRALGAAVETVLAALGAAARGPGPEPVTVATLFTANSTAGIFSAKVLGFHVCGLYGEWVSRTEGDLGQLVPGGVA

Soluble mouse gp130 (extracellular domain, amino acids 1-617, with a C-terminal tag of 6 histidine residues) (from UniProt Q00560 23-617) (receptor)
concentration of soluble gp130 required to increase the binding of CT-1 to the soluble LIF receptor: 100 nM
